Experimental data reported in patent publication US20150079090A1 (JOSAI UNIVERSITY, published 2015).
Ends that are not written are not given here.

Biological target: T1, conjugate of a peptide consisting of an amino acid sequence represented by SEQ ID NO:1 (SSVLYGGPPSAA) and KLH (also: conjugated to KLH with glutaraldehyde, site and number per carrier not given here)
T1 construct: Synthetic peptide (Fmoc solid phase) cross-linked to KLH by glutaraldehyde; also called antigenic substance; antigen
T1 peptide: SSVLYGGPPSAA
Test: ELISA of hybridoma culture supernatant on plate coated with the peptide-KLH conjugate, fluorescence read-out
Procedure: A buffer solution containing the above-mentioned antigenic substance (5 mg) (Baicarbonate buffer: 100 mM NaHCO₃—NaOH, pH 9.2 to 9.5, the concentration of the peptide: 1 μg/mL) was added to a 96 well flat bottom plate in an amount of 50 μL per well, and allowed to stand for coating at room temperature for 2 hours. The plate was washed 3 times with wash buffer (PBST), and then blocking buffer (3% skim milk 1% BSA, PBS) was added in an amount of 200 to 250 μL/well to react at 4° C. for one full day, and then washed 3 times. Then the culture supernatant of hybridoma was added in an amount of 100 μL/well, which was allowed to react at 37° C. for 4 hours or at 4° C. for one full day. After the plate was washed 3 times, biotin-labeled anti-mouse IgG (SIGMA) diluted 10000 times with dilution buffer (10 mM Tris-HCl (pH 8.0), 0.9% (W/V) NaCl, 0.05% (W/V) Tween 20) was added in an amount of 50 μL/well, which was allowed to react at room temperature for 2 hours. […] Then washing was performed 6 times, and fluorescent substrate buffer (Attophos substrate buffer, Roche Diagnostics K.K.) was added in an amount of 50 μL/well, and the plate was shaded to allow fluorescence to develop. Fluorescence intensity was measured in CytoFluorII (PerSeptive Biosystems).

binding result: binds
B1: monoclonal antibody (SSVmAb) of Example 1, produced by hybridoma Mouse-Mouse hybridoma SSV-C 93-3 (NITE BP-972) (antibody, IgG1, V domains shown)
VH: EIQLQQSGAELVKPGASVKISCKASGYSFTGYNMNWVKQSHGKSLEWIGNINPYYGSTSYNQKFKGKATLTVDKSSSTAYMQLNSLTSEDSAVYYCARSPYYSNYWRYFDYWGQGTTLTVSS
VL: QIVLSQSPAILSASPGEKVTMTCRASSSVSYMHWYQQKPGSSPKPWIYATSNLASGVPARFSGSGSGTSYSLTISRVEAEDAATYYCQQWSSNPWTFGGGTKLEIK
notes: Mouse hybridoma antibody
